Data: article PMC8607881 (Nature, 2021)

B1: Fab1 (Fab, V domains shown)
VH: EVQLVESGGGLVQPGGSLRLSCAASGFNLYSSSIHWVRQAPGKGLEWVASIYSYYGSTSYADSVKGRFTISADTSKNTAYLQMNSLRAEDTAVYYCARYEGWWWANTYALDYWGQGTLVTVSS
VL: DIQMTQSPSSLSASVGDRVTITCRASQSVSSAVAWYQQKPGKAPKLLIYSASSLYSGVPSRFSGSRSGTDFTLTISSLQPEDFATYYCQQYYEWLSLFTFGQGTKVEIK
B2: Fab6 (Fab, V domains shown)
VH: EVQLVESGGGLVQPGGSLRLSCAASGFNFSSYSIHWVRQAPGKGLEWVAYISSYYGSTYYADSVKGRFTISADTSKNTAYLQMNSLRAEDTAVYYCARHEYGWWNDRWGLDYWGQGTLVTVSS
VL: DIQMTQSPSSLSASVGDRVTITCRASQSVSSAVAWYQQKPGKAPKLLIYSASSLYSGVPSRFSGSRSGTDFTLTISSLQPEDFATYYCQQSSWYGPFTFGQGTKVEIK
B3: C-terminally truncated bovine GRK1 (residues 1-535) with C-terminal His6 (enzyme, UniProt P28327 1-535, looked up)
chain: MDFGSLETVVANSAFIAARGSFDASSGPASRDRKYLARLKLPPLSKCEALRESLDLGFEGMCLEQPIGKRLFQQFLRTHEQHGPALQLWKDIEDYDTADDALRPQKAQALRAAYLEPQAQLFCSFLDAETVARARAGAGDGLFQPLLRAVLAHLGQAPFQEFLDSLYFLRFLQWKWLEAQPMGEDWFLDFRVLGRGGFGEVFACQMKATGKLYACKKLNKKRLKKRKGYQGAMVEKKILAKVHSRFIVSLAYAFETKTDLCLVMTIMNGGDIRYHIYNVDEDNPGFQEPRAIFYTAQIVSGLEHLHQRNIIYRDLKPENVLLDDDGNVRISDLGLAVELKAGQTKTKGYAGTPGFMAPELLLGEEYDFSVDYFALGVTLYEMIAARGPFRARGEKVENKELKQRVLEQAVTYPDKFSPASKDFCEALLQKDPEKRLGFRDGSCDGLRTHPLFRDISWRQLEAGMLTPPFVPDSRTVYAKNIQDVGAFSTVKGVAFEKADTEFFQEFASGTCPIPWQEEMIETGVFGDLNVWRPDG
B4: light activated rhodopsin (Rho*) (receptor, bovine, UniProt P02699 1-348, looked up)
chain: MNGTEGPNFYVPFSNKTGVVRSPFEAPQYYLAEPWQFSMLAAYMFLLIMLGFPINFLTLYVTVQHKKLRTPLNYILLNLAVADLFMVFGGFTTTLYTSLHGYFVFGPTGCNLEGFFATLGGEIALWSLVVLAIERYVVVCKPMSNFRFGENHAIMGVAFTWVMALACAAPPLVGWSRYIPEGMQCSCGIDYYTPHEETNNESFVIYMFVVHFIIPLIVIFFCYGQLVFTVKEAAAQQQESATTQKAEKEVTRMVIIMVIAFLICWLPYAGVAFYIFTHQGSDFGPIFMTIPAFFAKTSAVYNPVIYIMMNKQFRNCMVTTLCCGKNPLGDDEASTTVSKTETSQVAPA
modifications: all-trans retinal (Meta II state)
B5: hyper-phosphorylated rhodopsin (light activated) (receptor, bovine, UniProt P02699 1-348, looked up)
chain: B4 chain
modifications: 6–8 phosphates incorporated per rhodopsin (7 possible sites in the cytoplasmic tail)

What was measured:
[1] = target: biotinylated Avi-tagged GRK1 (residues 1-535, His6-Avi), Sgv-bound (Bos taurus (Bovine)., UniProt P28327, biotin on the Avi-tag); experiment: ELISA
[2] = target: B4; experiment: cross-linking
[3] = target: B3; experiment: cross-linking

Binder | Kd [1] [nM] | binding result [3] | also measured
B1 | ~2.5 |  | 
B2 | ~2.5 |  | 
B3 |  |  | stoichiometry N [2]: 1
B4 |  | binds | 
B5 |  | binds | 
